Assay results as given in paper PMC5521740.

Target: T1, His-CRP (cAMP receptor protein) (Klebsiella pneumoniae NTUH-K2044) (UniProt A0ACD7U7W2)
T1 sequence: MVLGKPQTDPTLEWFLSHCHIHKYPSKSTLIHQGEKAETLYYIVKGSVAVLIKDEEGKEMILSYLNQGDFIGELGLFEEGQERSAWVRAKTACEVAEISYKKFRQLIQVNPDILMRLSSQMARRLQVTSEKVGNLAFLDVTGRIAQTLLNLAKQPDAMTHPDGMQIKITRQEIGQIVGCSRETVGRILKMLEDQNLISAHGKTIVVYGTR
Assay: DNase I footprinting
Conditions: 5x binding buffer ([…], room temperature, 20 min ([…]) or 30 min ([…]

## ATACCGGCAGCTGCGAGTAATTTTACGTTTTTCATGGTGTTTGTCCTTTTAACTTTTATGGTGGAAAGCATGTTTGCTTTCGATGGACTTATAATAAGTCTGCTAACTATAACGCGCGTGGCAAAAAGTGCGATTTAGATCACATTTTTATGGCGGTTTGATGGCGTAAACATGATCGTTTATCTATTTTTTAATTTAAAAACAATCAATTAATGATTTGCTTCTGAAAGGGGGTATCACAT (double strand) [KP1_4563 promoter footprinting fragment]
  binding: binds
